Laboratory results as given in patent publication US20110256172A1.

Target: Bacillus anthracis protective antigen (PA83, List Biological Laboratories) (Bacillus anthracis) (UniProt P13423)
Assay: cell-based or functional assay

Chain of UniProt P13423 (P13423 30-764): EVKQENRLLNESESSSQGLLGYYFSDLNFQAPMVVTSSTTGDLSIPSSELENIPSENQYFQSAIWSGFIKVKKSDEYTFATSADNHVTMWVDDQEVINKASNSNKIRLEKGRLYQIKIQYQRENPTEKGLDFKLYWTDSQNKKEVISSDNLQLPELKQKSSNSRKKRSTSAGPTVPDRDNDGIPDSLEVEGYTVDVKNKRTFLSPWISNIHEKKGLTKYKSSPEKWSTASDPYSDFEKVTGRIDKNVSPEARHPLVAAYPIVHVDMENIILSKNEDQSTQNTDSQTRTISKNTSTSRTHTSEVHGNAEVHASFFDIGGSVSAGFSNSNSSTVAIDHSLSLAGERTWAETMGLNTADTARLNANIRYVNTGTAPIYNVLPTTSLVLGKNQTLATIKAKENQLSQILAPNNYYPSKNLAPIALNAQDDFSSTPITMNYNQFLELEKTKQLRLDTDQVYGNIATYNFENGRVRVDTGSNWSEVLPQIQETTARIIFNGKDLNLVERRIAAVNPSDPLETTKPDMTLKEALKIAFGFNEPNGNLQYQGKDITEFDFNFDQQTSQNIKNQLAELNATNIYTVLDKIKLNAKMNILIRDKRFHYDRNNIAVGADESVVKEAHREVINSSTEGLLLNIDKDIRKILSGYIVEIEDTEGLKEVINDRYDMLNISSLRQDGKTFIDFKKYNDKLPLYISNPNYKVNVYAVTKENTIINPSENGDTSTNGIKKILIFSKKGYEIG

Substance	peak neutralization titer (TNA) (fold over the control PA antiserum)
Sera of the three rabbits immunized with MAP304 (four copies of P30-PA 304-319)	23
Sera of the three rabbits immunized with MAP305 (four copies of P30-PA 305-319)	19
